From the supplement of paper PMC7877785
± gives the uncertainty stated by the source.

Test: self-splicing fitness, log relative to wild type (ln ratio); higher = more splicing; Tetrahymena group I intron in knt gene, E. coli kanamycin selection, DiMSum; sequences stand for … in CUCUCU…GGAGGGAAAAGUUAUCAGGCAUGCACCUGGUAGCUAGUCUUUAAACCAAUAGAUUGCAUCGGUUUAAAAGGCAAGACCGUCAAAUUGCGGGAAAGGGGUCAACAGCCGUUCAGUACCAAGUCUCAGGGGAAACUUUGAGAUGGCCUUGCAAAGGGUAUGGUAAUAAGCUGACGGACAUGGUCCUAACCACGCAGCCAAGUCCUAAGUCAACAGAUCUUCUGUUGAUAUGGAUGCAGUUCACAGACUAAAUGUCGGUCGGGGAAGAUGUAUUCUUCUCAUAAGAUAUAGUCGGACCUCUCCUUAAUGGGAGCUAGCGGAUGAAGUGAUGCAACACUGGAGCCGCUGGGAACUAAUUUGUAUGCGAAAGUAUAUUGAUUAGUUUUGGAGUACUCGUGGUCG
Summary of the method: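 DiMSum derived fitness as the error-weighted combination of fold changes across replicates, kanamycin versus no kanamycin, normalised to wild type. E. coli BL21(DE3) held the library, which randomised all eight P1ex-region intron nucleotides within the knt kanamycin-resistance gene on pET-22b(+). Six replicate transformations grew overnight at 37°C or 30°C on LB agar with or without 25 μg/mL kanamycin, also containing 100 μg/mL carbenicillin, 50 μM IPTG and 0.2% rhamnose, and pooled colonies were amplicon-sequenced on an Illumina HiSeq 2500.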

Row | Sequence | self-splicing fitness (ln) (30 °C) | self-splicing fitness (ln) (37 °C)
1 | ACCAAGCAAUAUUACGGUCA | -1.36 ± 0.082 | -0.9 ± 0.086
2 | ACCAAGCAAUAUUACGUAAC | -3.94 ± 0.17 | -2.19 ± 0.16
3 | ACCAAGCAAUAUUACGUAGG | -2.55 ± 0.068 | -2.03 ± 0.096
4 | ACCAAGCAAUAUUACGUCCA | -2.01 ± 0.096 | -1.3 ± 0.1
5 | ACCAAGCAAUAUUACGUGAU | -2.46 ± 0.072 | -0.924 ± 0.074
6 | ACCAAGCAAUAUUACGUGCC | -0.735 ± 0.082 | -0.801 ± 0.13
7 | ACCCAGCAAUAUUACGAACC | -2.19 ± 0.15 | -0.993 ± 0.15
8 | ACCCAGCAAUAUUACGACAG | -3.36 ± 0.12 | -1.67 ± 0.11
9 | ACCCAGCAAUAUUACGACGU | -0.291 ± 0.055 | 0.39 ± 0.071
10 | ACCCAGCAAUAUUACGAGAG | -2.16 ± 0.086 | -0.789 ± 0.09
11 | ACCCAGCAAUAUUACGAUAU | -1.72 ± 0.1 | -0.318 ± 0.11
12 | ACCCAGCAAUAUUACGAUCA | -0.557 ± 0.11 | -0.56 ± 0.13
13 | ACCCAGCAAUAUUACGAUCU | -1.34 ± 0.068 | -0.243 ± 0.084
14 | ACCCAGCAAUAUUACGCAAU | -0.941 ± 0.053 | 0.344 ± 0.064
15 | ACCCAGCAAUAUUACGCAGG | -3.07 ± 0.11 | -2.48 ± 0.16
16 | ACCCAGCAAUAUUACGCAUA | -1.19 ± 0.061 | -1.07 ± 0.066
17 | ACCCAGCAAUAUUACGCCCA | -0.605 ± 0.12 | -0.4 ± 0.13
18 | ACCCAGCAAUAUUACGCCCG | -2.3 ± 0.18 | -1.22 ± 0.19
19 | ACCCAGCAAUAUUACGCCCU | -0.0641 ± 0.052 | 0.262 ± 0.091
20 | ACCCAGCAAUAUUACGCCUG | -2.21 ± 0.12 | -3 ± 0.26
21 | ACCCAGCAAUAUUACGCGAA | -1.26 ± 0.068 | -0.703 ± 0.078
22 | ACCCAGCAAUAUUACGCUAG | -2.81 ± 0.1 | -1.77 ± 0.12
23 | ACCCAGCAAUAUUACGCUUG | -3.38 ± 0.11 | -2.43 ± 0.12
24 | ACCCAGCAAUAUUACGGCAU | -0.483 ± 0.042 | 0.0474 ± 0.058
25 | ACCCAGCAAUAUUACGGGGA | -1.02 ± 0.053 | -0.524 ± 0.065
26 | ACCCAGCAAUAUUACGGUAU | -0.563 ± 0.047 | -0.154 ± 0.068

Row | Sequence | self-splicing fitness (ln) (30 °C) | self-splicing fitness (ln) (37 °C)
27 | ACCCAGCAAUAUUACGGUCC | -1.61 ± 0.085 | -1.4 ± 0.12
28 | ACCCAGCAAUAUUACGGUCG | -3.85 ± 0.14 | -1.75 ± 0.095
29 | ACCCAGCAAUAUUACGGUCU | -1.12 ± 0.038 | -0.171 ± 0.052
30 | ACCCAGCAAUAUUACGGUUA | -0.324 ± 0.059 | -0.361 ± 0.06
31 | ACCCAGCAAUAUUACGUGCG | -3.12 ± 0.13 | -1.85 ± 0.098
32 | ACCCAGCAAUAUUACGUGUA | -1.38 ± 0.06 | -0.689 ± 0.064
33 | ACCCAGCAAUAUUACGUUAU | -1.91 ± 0.064 | -1.04 ± 0.081
34 | ACCCAGCAAUAUUACGUUUU | -1.41 ± 0.048 | -0.336 ± 0.066
35 | ACCGAGCAAUAUUACGAAAC | – | -2.95 ± 0.37
36 | ACCGAGCAAUAUUACGACAA | -2.37 ± 0.22 | -2.4 ± 0.26
37 | ACCGAGCAAUAUUACGACGC | -0.285 ± 0.089 | -0.16 ± 0.11
38 | ACCGAGCAAUAUUACGAGCA | -2.63 ± 0.13 | -1.99 ± 0.13
39 | ACCGAGCAAUAUUACGAUCC | -2.86 ± 0.34 | -1.94 ± 0.29
40 | ACCGAGCAAUAUUACGAUCU | -1.66 ± 0.14 | -0.405 ± 0.15
41 | ACCGAGCAAUAUUACGCAGG | -4.2 ± 0.47 | -2.65 ± 0.41
42 | ACCGAGCAAUAUUACGCGGG | -3.85 ± 0.18 | -2.89 ± 0.19
43 | ACCGAGCAAUAUUACGCUAA | -3.28 ± 0.32 | -2.05 ± 0.28
44 | ACCGAGCAAUAUUACGGAAA | -2.92 ± 0.12 | -2.5 ± 0.12
45 | ACCGAGCAAUAUUACGGAUU | -3.51 ± 0.16 | -1.94 ± 0.16
46 | ACCGAGCAAUAUUACGGCAG | -4.4 ± 0.39 | –
47 | ACCGAGCAAUAUUACGGGCC | -3.39 ± 0.17 | -2.09 ± 0.15
48 | ACCGAGCAAUAUUACGGGGC | -3.64 ± 0.2 | -2.47 ± 0.2
49 | ACCGAGCAAUAUUACGGGUC | -4.23 ± 0.14 | -3.06 ± 0.14
50 | ACCGAGCAAUAUUACGGGUU | -2.85 ± 0.12 | -2.54 ± 0.18
51 | ACCGAGCAAUAUUACGGUAG | -3.75 ± 0.23 | -2.73 ± 0.24
52 | ACCGAGCAAUAUUACGUAAA | -4.22 ± 0.29 | -1.66 ± 0.19

Row | Sequence | self-splicing fitness (ln) (30 °C) | self-splicing fitness (ln) (37 °C)
53 | ACCGAGCAAUAUUACGUAAG | -2.67 ± 0.13 | -2.13 ± 0.16
54 | ACCGAGCAAUAUUACGUAUG | -3.56 ± 0.15 | -2.28 ± 0.15
55 | ACCGAGCAAUAUUACGUCUG | -2.37 ± 0.095 | -2.28 ± 0.14
56 | ACCGAGCAAUAUUACGUGUA | -2.2 ± 0.13 | -1.49 ± 0.096
57 | ACCGAGCAAUAUUACGUUCG | -3.19 ± 0.48 | -1.76 ± 0.23
58 | ACCUAGCAAUAUUACGAACA | -2.24 ± 0.29 | 0.383 ± 0.2
59 | ACCUAGCAAUAUUACGAACC | -1.67 ± 0.16 | -1.07 ± 0.19
60 | ACCUAGCAAUAUUACGAAUG | -3.04 ± 0.15 | -2.3 ± 0.13
61 | ACCUAGCAAUAUUACGACAU | -0.784 ± 0.011 | -0.119 ± 0.032
62 | ACCUAGCAAUAUUACGACUA | -2.72 ± 0.21 | -1.78 ± 0.23
63 | ACCUAGCAAUAUUACGAGAU | -2.54 ± 0.091 | -1.3 ± 0.098
64 | ACCUAGCAAUAUUACGAUAA | -2.61 ± 0.27 | -2.1 ± 0.23
65 | ACCUAGCAAUAUUACGAUGG | -3.01 ± 0.17 | -0.981 ± 0.18
66 | ACCUAGCAAUAUUACGAUUG | -3.2 ± 0.21 | -2.28 ± 0.25
67 | ACCUAGCAAUAUUACGCAAG | -2.73 ± 0.15 | -2.2 ± 0.18
68 | ACCUAGCAAUAUUACGCCUA | -2.17 ± 0.3 | -2.38 ± 0.3
69 | ACCUAGCAAUAUUACGCGCU | 0.00461 ± 0.076 | -0.0669 ± 0.096
70 | ACCUAGCAAUAUUACGCUGG | -4.07 ± 0.35 | -2.53 ± 0.22
71 | ACCUAGCAAUAUUACGGCGG | -1.36 ± 0.12 | -1.6 ± 0.14
72 | ACCUAGCAAUAUUACGGGAA | -1.62 ± 0.11 | -0.345 ± 0.11
73 | ACCUAGCAAUAUUACGGGCU | -1.51 ± 0.076 | -1.35 ± 0.094
74 | ACCUAGCAAUAUUACGGGGA | -1.11 ± 0.08 | -0.794 ± 0.096
75 | ACCUAGCAAUAUUACGGGGG | -3.84 ± 0.2 | -1.59 ± 0.17
76 | ACCUAGCAAUAUUACGUCAG | -3.93 ± 0.19 | -1.85 ± 0.1
